Our source for the binding result and EC50 values is patent publication US20110123532A1 (ONCOMED PHARMACEUTICALS, published 2011).

Data set [1] concerns the molecule itself. Description: non-reducing western blot of conditioned medium of transfected HEK293 cells, anti-FLAG (left, middle) and anti-Fc (right); homodimer of the minibody. From the text:
Var1 contains amino acid 249 Lys to Glu substitution and amino acid 288 Lys to Glu substitution within the CH3 domain. Antibody Var2 contains substitutions of amino acid 249 Lys to Glu substitution, amino acid 286 Tyr to Phe, and amino acid 288 Lys to Glu within the CH3 domain. Antibody Var3 (also referred to as 13A) contains substitutions of amino acid 236 Glu to Lys and amino acid 278 Asp to Lys. HEK293 cells were transiently transfected with combinations of expression vectors as indicated. Non-reducing Western blot analysis was conducted with an anti-FLAG antibody to reveal the size of the secreted antibody products.
Amino acid substitutions were introduced into either a truncated heavy chain (termed mini-body) containing the linker and CH2-CH3 region of a heavy chain, or a full length antibody heavy chain heavy chain.
On the technique in general: In western blotting, separated proteins are transferred to a membrane and probed.

The target of data set [2] is T1, full length human DLL4 on transfected human 293 HEK cells (human, UniProt Q9NR61 27-685).
T1 construct: whole, on cells; also called hDLL4 transfected cells; human DLL4 transfected cells
Description: flow cytometry on human 293 HEK cells transfected with full length human DLL4 and GFP; goat anti-human IgG H/L-PE; MFI against log(nM), non-linear fit. For orientation: In flow cytometry, cells or beads pass a laser one at a time.

Substitutions are numbered along the chain they refer to.

B1: FLAG tagged minibody with wild type human IgG2 CH2 and CH3 domains (WT) (other)
chain: DYKDDDDKCVECPPCPAPPVAGPSVFLFPPKPKDTLMISRTPEVTCVVVDVSHEDPEVQFNWYVDGVEVHNAKTKPREEQFNSTFRVVSVLTVVHQDWLNGKEYKCKVSNKGLPAPIEKTISKTKGQPREPQVYTLPPSREEMTKNQVSLTCLVKGFYPSDIAVEWESNGQPENNYKTTPPMLDSDGSFFLYSKLTVDKSRWQQGNVFSCSVMHEALHNHYTQKSLSLSPGK
notes: also called WT minibody
On to B1, for which, in data set [1], the binding result is reported as “binds”.

B2: FLAG tagged minibody variant Var1 (13B) (other)
chain: B1 chain with K155E, K194E
For the molecule B2, the binding result in data set [1] is recorded as “binds”.

B3: 21M18 (antibody, V domains shown)
VH: QVQLVQSGAEVKKPGASVKISCKASGYSFTAYYIHWVKQAPGQGLEWIGYISSYNGATNYNQKFKGRVTFTTDTSTSTAYMELRSLRSDDTAVYYCARDYDYDVGMDYWGQGTLVTVSS
VL: DIVMTQSPDSLAVSLGERATISCRASESVDNYGISFMKWFQQKPGQPPKLLIYAASNQGSGVPDRFSGSGSGTDFTLTISSLQAEDVAVYYCQQSKEVPWTFGGGTKVEIKR
notes: also called 21M18 antibody; anti-human DLL4 (21M18)
For the molecule B3, the concentration giving a half-maximal response (EC50) (commonly the midpoint of the concentration-response curve) in data set [2] was determined as 2 nM.

B4: Homo 13B (21M18) (antibody, human IgG2, kappa, V domains shown)
VH: B3 VH
VL: B3 VL
notes: also called 21M18 HC (with 13B mutation) expressed only with 21M18 LC
B4 registered an EC50 in data set [2] of 7.7 nM.
